Experimental findings from the nanobody polyreactivity screen of Harvey et al. (2022) are described below.

This series in a line: yeast display, Sf9 membrane polyspecificity reagent, FACS + sequencing; frameworks hold sequencing errors. The method, boiled down:
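Nanobodies came from a synthetic yeast display library in Saccharomyces cerevisiae BJ5465, induced with galactose for 36–48 hours and stained for 1 hour at 4 °C with 10% biotinylated, detergent-solubilized Sf9 membrane reagent. Cells were enriched on streptavidin microbeads and then FACS-sorted, with low and high (top ~1%) gates set on anti-HA fluorescence for expression and streptavidin fluorescence for reagent binding. Each polyreactivity label reflects the gate a clone came from. Genes were amplified by colony PCR, sequenced by MiSeq 2 × 250 and filtered by CDR length.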
For the sequence “QVQLVESGGGLVQAGGSLRLSCAASGSTFNYNAMGWYRQAPGKERELVAAIRSSDGSTHYADSVKGRFTISRDNAKNTVYLQMNSLKPEDTAVYYCAADYDVWWRDDYWGQGSQVTVSS”, the “polyreactivity (PSR sort gate)” value is listed as “low polyreactivity”.
For “QVQLVESGGGLVQAGGSLRLSCAASGRIFGGYALGWYRQAPGKERELVAAITRSGGSTYYADSVKGRFTISRDNAKNTVYVQMNSLKPEDTAVYYCAARNYYSWRYDYWGQGTQVTVSS”, the “polyreactivity (PSR sort gate)” value is listed as “high polyreactivity”.
On to “QVQLVESGGGLVQPGGSLRLTCAASGGIFVTYTMGWYRQAPGKDRELVAGINSRSGSTYADSVKGGFTISRDNAKNTVYLQRTSLKLEDTAVYYCAADRIDLGRASRYGYWGQGTQVTVSS”, for which the “polyreactivity (PSR sort gate)” value is recorded as “low polyreactivity”.
Take “QVQIVESGGGLFQAGGSLRISCAASGSTIRANPMGWYRQAPGKERELVAAITKNGGSTYYADSVKGRYTISRDNAKYTVYLPMNTLIPEDNGVYYCAARRSSRRPPYYYWGQGTQVTVSS”: the “polyreactivity (PSR sort gate)” value is recorded as “high polyreactivity”.
On to “QVQLVESGGGLVQAGGSLRLSCAASGRTFGTNTMGWYRQAPGKVRELVATISSSSGSTYYADSVKGRFTISRDNAKNTVYFQMNSLKPEDTAVYYCAALCRWRYKRYDYWGQGTQVTVSS”, for which the “polyreactivity (PSR sort gate)” value was “high polyreactivity”.
With “QVQLVESGGGLVQAGGSLRLSCAASGSTLGRYSMGWYRQAPGKERELVAAISWRGGSTYYADSVKGRFTISRDNAKNTVYLQMNSLKPEDTPVYYCAATYRFSEYYYWGQGTQVTVSS” the entry was “high polyreactivity”; with “QVQLVESAAGLVQAGGSLRLSCAASGSTFYRYEMGWYRQAPGKERELVATNTSGGSSTYYADSVKGRFTISRDNAKNTVYLQMNSLKPEDTAVYYCAKVYTYSGVNLSSISTPYGYWGQGTQVTVSS”, “high polyreactivity”.
With “QVQLVESGGRLVQAGGSLRLSCAASGRTFYRYVMGWYRQAHGQVRELVAAISEGGGSTFYADSVKGRFTISRDNAKNTVYLQLNSLKPEDTAVYYCAADYYVRGGFFRYDYWGQGTQVTVSS” the entry was “low polyreactivity”; with “QVQLEDSGGGVVQAGGSLRLSCAASGSIYYPYAMGWNRQAPGKERELVARITSGGSTHYADSVKGRFTISRDNAKNTVYLQMNSLKPEETAVYYCNADYWFVESDYWGKGTQVTVSS”, “low polyreactivity”; with “QVQLGESGGGLVQAGGSLRLSCAASGRIFSHNAMGWDRQAPGKERELVAVISRSGTGTYYADSVKGRFTISRDNAKNTVYLQMNSLKPEDTAVYYCNTYYEWWYYWGQGTQVTVSS”, “high polyreactivity”.
With “QVQLVESGGGLVQAGGSLRLSCAASGRIFLVYAMGWYRQAPGKERELVAAISWRGGRTYYADSVKGRFTISRDNAKNTVYLQMNILKPEDTAVYYCAAASKYSQFEYDYWGHGTQVTVSS” the entry was “high polyreactivity”.
Take “QVQLVESGGGLVQAGGSLRLSCAASGFTFLFYAKGWYRHAPGKEMELVAAISWSGDTTYYADSVKGRFTISLDNSKNTVYLQMNSLKPEDTAVYYCNAESNIFGYDYWGQGTQVTVTS”: the “polyreactivity (PSR sort gate)” value is listed as “high polyreactivity”.
As to “QVQLVESGRGLVQEGGSLRLSCAPSGSTFYRFAMGWYRQAPGKERELVAAISASGGSTYYADSVKGRFTISRDNAKYTVYLQMNSLKPEDTEVYYCNRDRRYRNDYWGQGTQVTVST”, the “polyreactivity (PSR sort gate)” value was “high polyreactivity”.
With “QVQLVESGGGLVQAGGSLRLSCAASGRTFFWYAMGWYRQAPGKERDLVAAIRGAGRTNYADSVKGRFTISRYNAKNTVYLQMNSLKPEDTAVYYCAAQHYPWRRYDYWGQGTQVTVSS” the entry was “high polyreactivity”.
To “QVQLVESGVGLVQAGGRLRLSCAASGSIFASSAMGWYRKAPGKERELVAVINSYDRTNYADSVKGRFTISRDNAKNTVYLKMNSLKPEDTAVYYCNADAIRIIPAYDYWGQGTQVTVSS” belongs “low polyreactivity”; to “QVQLVESGGGLVQAGGSLRLSCAASGRIFGNNAMGWYRQAPGKERELVAAIRSRGTRTYYADSVKGRFTISRDNAKNTVYLQMNSLKPEDTAVYYCATTSLTGRYDRYDYWGQGTQVTVSS”, “high polyreactivity”; to “QVQLVESGGGLVHAGGSLPLSCAASGLTFGSNPMRTYRQAPVQERELVAAISGGTSTNYADSVKGRFTISRDNAKNTVYLQMNSMTPEDTAVYYCAAAKRTADYASYWYVENDYWGQGSQVTVSS”, “low polyreactivity”.
With “QVQLVESGGGLVQAGGSLRLSCAASGIIFWYYAMGWYRQAPGKDRELVARITTAGITNYADSVKGRFTISRDNAKNTVYLQMNSLKPEDTAVYYCAADTYWHYRGPGYDYWGQGTQVTVAS” the entry was “low polyreactivity”; with “QVQLVESGGGLVQGGGSLSLRCAASGSTFDYNAMGWYRQAPGKERDLVAVISGGSSTNYADSVKGRFTISRDNEKNTVYLQMNSLNPEDTAVYYCNARDYFVARAVSFVTYWLGVYWGQGTQVSVSS”, “low polyreactivity”.
For “QVQLVESGGGLVQAGGSLRLSCAASGRTFFWNAMGWYRQAPGTERELVAAITWSGGSTYYADSVKGRFTLSRDNAKNTVYLQMNSLKPEDTAVYYCAAVVSEYVWRYEYWGQGTQVTVSS”, the “polyreactivity (PSR sort gate)” value was “low polyreactivity”.
For the sequence “QVQLVESGGGLVQAGGSLRLSCAASGSIFSSNAMGWYRQAPGKERELVAAITSGGSTTYADSVKGRFPISRDNAKNTVYFQMNSLKPEDTAVYYCAADPVYRYYHGWTYLDYDYWGQGTQVTVSS”, the “polyreactivity (PSR sort gate)” value is “low polyreactivity”.
As to “QVQLVESGGCLVQAGGSLRLSCPASGNNFTAYAMGWYRQAPAKERELVAAISSSGRTNYADSVKGRFTISRDNAKNTVYLQMNSLKPEDTAVYYCAAYRLSNPFYKYDYWGQGTQVTVSS”, the “polyreactivity (PSR sort gate)” value is listed as “high polyreactivity”.
For “QVQLVESGGGLVQAGGSLRLSCAASGSTFVDNLMGWYRQSPGKERELVAAIDFSTGSTYYADSVKGRFTISRDNAKNTVYLQMNSLKPDDTAVYYCNAKYYSWDWSSFNYWGQGTQVTVSS”, the “polyreactivity (PSR sort gate)” value is listed as “low polyreactivity”.
For “QVQLVESGGGLVQAGGSLRISCADSGSIFRRYAMGWYRQAPGKERELVAAISIGGGSTYYADSVKGRFTISRDNAKNTVYLLMTSLKPEDTAVYYCNKVEYDGAYDYWGQGTQVTVSS”, the “polyreactivity (PSR sort gate)” value was “low polyreactivity”.
With “QVQLVESGGGLVQAGGSLRLSCAASGSIFSHNVMVWYRQAPGKERELVAAISGGGGRTYYADSVKGRFTISRDNAKNTVYLQMNSLKAEDTAVYYCNAYVGLSEGDYWGQGTQVSVSS” the entry was “high polyreactivity”; with “QVQLVESGGGLVQAGGSLRLSCAASGRTFYGNAMGWYRQAPGKERELVAAINRDGGTYYADSVKGRFTISRDNAKNTVYLQMNSLKPEDTAVYYCNAVKRGIRYGYWGQGTQVTVSS”, “high polyreactivity”; with “QVQLVESGGGLVQAGGSLRLSCAASGSIFWVYAMGWYRQAPGKERELVAAISSSGGRTYYADSVKGRFTISRDNAKNTVYLQMNSVKPEVTAVYYCAARWKTGYNYWGQGTQVTVSS”, “high polyreactivity”.
As for “QFQLVESGGGLVQAGGSLRLSCAASGSICVLYPMGWYRQAPGKERELVAAITSGASTNYADSVKGRFTISRDNAKNTVYLQMNSQKPEDTAVYYCNTGSRLDRVDSWGQGTQLTVSS”, the “polyreactivity (PSR sort gate)” value is recorded as “low polyreactivity”.
With “QVQLVESGGGLVQAGGSLRLSCAASGSIFWINAMGWYRQAPGKERELVADIDVSGGSTYYADSVKGRFTISRDNAKNTVYLQMNSLKPEDTAVYYCAADDYWAYLYYKTSEYDYWGQGTQVTVSS” the entry was “low polyreactivity”; with “QVQLVESGGGLVQAGGSLRLSCAASGSTFPANAMGWYRQAPGKERELVATISWSGGRTYYADSVKGRFTISRDNAKNTVYLQMNSLKPEDTAVYYCAANGHGRVYFGGGNWGQGTQVTVSS”, “high polyreactivity”.
With “QVQLVESGGGLVQAGGSLRLSCAASGFTFEYYPMGWYRQAPGKERELVADITTSSAGTYYADSVKGRFTISRDNAKNTFYLQMNSLKPEDTAVYYCNRDALNTGEDLDYWGQGTQVSVSS” the entry was “low polyreactivity”; with “QVQLVESGGGLVQAGGSLRLSCAASGSTVHYMGWYRQAPGKERELVAGISWSGGSTYYADSVKGRFTISRDNAKNTVYLQMNSLKPEDTAVYYCAADIKIRLYTTGDYWGQGSQVTVSS”, “low polyreactivity”.
For the sequence “QVQLVESGGGLVQAGGSLRLSCAASGRIFVPYLMGWYRQAPGKERELVASISDSDTSTYYADSVKGRFTISRDNAKNTVYLQMNSLKPEDTAVYYCNVDYWGQGTQVTVSS”, the “polyreactivity (PSR sort gate)” value is “low polyreactivity”.
For the sequence “QVQLVESGGGLVQAGGSLRLSCAASGRIFRRYALGLYRQAPGKEREFVAAISYGGGSTYYADSVKGRFTISRDNAKNTVYLQMNRLKPEDTAVYFCNADVPKSLLLYYPWGYGYWGQGTQVTVSS”, the “polyreactivity (PSR sort gate)” value was “low polyreactivity”.
With “QVQLVESGGGLVQAGGSLRLSCAASGSIFGEYAMGWYRQAPGKERELVADITTGGNTNYADSVKGRFTISRDYAKNTVYLQMNSLKPEDTAVYYCADEANYYVIFHGSWYTDDYWGQGTQVTVSS” the entry was “low polyreactivity”; with “QVQLVESGGRLVQAGGSLRLSCAASGRTFTYYAMGWYRQATGKERELVARITTVGSSTYYADSVKGRFTISRDNAKNTVYLQMNSLKPEETAVYYCNADHLWYSLFDYWGQGTQVTVSS”, “high polyreactivity”.
As for “QVQLVESGGGLVQGGGSLRLSCAASGRIFTRYTMGWYRPAPGKERELVAASTKRADRTNYADSVKGRFTISRDNAKNTVYLQMNSLKPEDTAVYSCNDAAFSQLRVRYDYWGQGTQVTVSS”, the “polyreactivity (PSR sort gate)” value was “low polyreactivity”.
With “QDQLVESGGGLVQAGGSLRLSCAASGFNFDSYAMRWYIQAPGKERELVAAMSWSGSSTYSADSVKGRFTISRDNAKNTGYLQMNSLKPEDTAVYYCAALVYPYWGGSMYYWGQGTQVTVSS” the entry was “high polyreactivity”; with “QVQLVDSGGCLFQAGGTLRLSCAASGFTLRAYAMGWYRQGPGKEREFVAVISRSDGSTYYADTVKGRFTISRENAKNTVYLQMNSLKPEDSAVYYCADKHRGAKYDYWGQGTQVTVSS”, “low polyreactivity”.
To “QVQLQESGGGLVQAGGSLRLSCAASGNIFLSIFMGWYRQAPGKEREFVAGIGSGTNTNYADSVKGRFTISRDNAKNTVYLQMNSLKAEDTAGYYSAAGRYGLYYHGYWGQGTQVTVSS” belongs “high polyreactivity”; to “QVQLVESGGGLVQAGGSLRLSCAASGRTFTVYAMGGSRQAPGKERELVAGIRRGDSTYYADSVKGRFTISRDNAKNSVDFQMNSLKPEDTAVYYCNARSSGRSYYYWGQGTQVTVSS”, “high polyreactivity”.
